Measurements reported in patent EP4660201A1 (dated 2025).
Changes are numbered by the printed parent chain.

What was measured:
[1] = molecular target: T1, KRAS G12V 7-16, P7A peptide on HLA-A*11:01 (human); test: cytokine release
T1 peptide: VVVGAVAVGK

[2] = molecular target: T2, KRAS G12V 7-16, P3I peptide on HLA-A*11:01 (human); test: cytokine release
T2 peptide: VVIGAVGVGK

[3] = molecular target: T3, KRAS G12V 7-16, P6I peptide on HLA-A*11:01 (human); test: cytokine release
T3 peptide: VVVGAIGVGK

[4] = molecular target: T4, KRAS G12V 7-16, P3G peptide on HLA-A*11:01 (human); test: cytokine release
T4 peptide: VVGGAVGVGK

[5] = molecular target: T5, KRAS G12V 7-16, P3A peptide on HLA-A*11:01 (human); test: cytokine release
T5 peptide: VVAGAVGVGK

[6] = molecular target: T6, KRAS G12V 7-16, P8T peptide on HLA-A*11:01 (human); test: cytokine release
T6 peptide: VVVGAVGTGK

[7] = molecular target: T7, KRAS G12V 7-16, P2I peptide on HLA-A*11:01 (human); test: cytokine release
T7 peptide: VIVGAVGVGK

[8] = molecular target: T8, KRAS G12V 7-16, P5S peptide on HLA-A*11:01 (human); test: cytokine release
T8 peptide: VVVGSVGVGK

[9] = molecular target: T9, KRAS G12V 7-16, P7Q peptide on HLA-A*11:01 (human); test: cytokine release
T9 peptide: VVVGAVQVGK

[10] = molecular target: T10, KRAS G12V 7-16, P5C peptide on HLA-A*11:01 (human); test: cytokine release
T10 peptide: VVVGCVGVGK

[11] = molecular target: T11, KRAS G12V 7-16, P6L peptide on HLA-A*11:01 (human); test: cytokine release
T11 peptide: VVVGALGVGK

[12] = molecular target: T12, KRAS G12V 7-16, P1T peptide on HLA-A*11:01 (human); test: cytokine release
T12 peptide: TVVGAVGVGK

[13] = molecular target: T13, KRAS G12V 7-16, P8C peptide on HLA-A*11:01 (human); test: cytokine release
T13 peptide: VVVGAVGCGK

[14] = molecular target: T14, KRAS G12V 7-16, P8I peptide on HLA-A*11:01 (human); test: cytokine release
T14 peptide: VVVGAVGIGK

[15] = molecular target: T15, KRAS G12V peptide on HLA-A*11:01 (human); test: luciferase killing assay; TCR-T cells with T2KO-A1101 cells loaded with 1e-5 to 1e-11 M peptide, E:T 9:1, 20 h; Figure 5C; full-length, on cells
T15 peptide: VVVGAVGVGK

[16] = molecular target: T15, KRAS G12V peptide on HLA-A*11:01; test: IFN-gamma ELISA; TCR-T cells with T2KO-A1101 cells loaded with 1e-5 to 1e-11 M peptide, E:T 1:1, 20 h; Figure 6C; full-length, on cells
[17] = molecular target: T15, KRAS G12V peptide on HLA-A*11:01; test: NFAT-GFP reporter in Jurkat (endogenous TCR knocked out); T2 cells loaded with 1e-5 to 1e-9 M target antigen peptide; full-length, on cells
[18] = molecular target: KRAS G12V 7-16 epitope peptide … presented by HLA-A*11:01 (human); test: cell-based or functional assay
[19] = molecular target: T16, KRAS G12D peptide on HLA-A*11:01 (human); test: IFN-gamma ELISA; TCR-T cells with T2KO-A1101 cells loaded with 1e-5 to 1e-11 M peptide, E:T 1:1, 20 h; Figure 6D; full-length, on cells
T16 peptide: VVVGADGVGK

[20] = molecular target: T16, KRAS G12D peptide on HLA-A*11:01; test: NFAT-GFP reporter in Jurkat (endogenous TCR knocked out); T2 cells loaded with 1e-5 to 1e-9 M target antigen peptide; full-length, on cells
[21] = molecular target: KRAS G12D 7-16 epitope peptide … presented by HLA-A*11:01 (human); test: cell-based or functional assay
[22] = molecular target: T17, KRAS G12V 7-16, P5T peptide on HLA-A*11:01 (human); test: cytokine release
T17 peptide: VVVGTVGVGK

[23] = molecular target: T18, KRAS G12V 7-16, P3E peptide on HLA-A*11:01 (human); test: cytokine release
T18 peptide: VVEGAVGVGK

[24] = molecular target: T19, KRAS G12V 7-16, P1A peptide on HLA-A*11:01 (human); test: cytokine release
T19 peptide: AVVGAVGVGK

[25] = molecular target: T20, KRAS G12V 7-16, P9N peptide on HLA-A*11:01 (human); test: cytokine release
T20 peptide: VVVGAVGVNK

[26] = molecular target: T21, KRAS G12V 7-16, P9D peptide on HLA-A*11:01 (human); test: cytokine release
T21 peptide: VVVGAVGVDK

[27] = molecular target: T22, KRAS G12V 7-16, P5P peptide on HLA-A*11:01 (human); test: cytokine release
T22 peptide: VVVGPVGVGK

[28] = molecular target: T23, KRAS G12V 7-16, P3Q peptide on HLA-A*11:01 (human); test: cytokine release
T23 peptide: VVQGAVGVGK

[29] = molecular target: T24, KRAS G12V 7-16, P8F peptide on HLA-A*11:01 (human); test: cytokine release
T24 peptide: VVVGAVGFGK

[30] = molecular target: T25, KRAS G12V 7-16, P5V peptide on HLA-A*11:01 (human); test: cytokine release
T25 peptide: VVVGVVGVGK

[31] = molecular target: T26, KRAS G12V 7-16, P9A peptide on HLA-A*11:01 (human); test: cytokine release
T26 peptide: VVVGAVGVAK

[32] = molecular target: T27, KRAS G12V 7-16, P3S peptide on HLA-A*11:01 (human); test: cytokine release
T27 peptide: VVSGAVGVGK

[33] = molecular target: T28, KRAS G12V 7-16, P8G peptide on HLA-A*11:01 (human); test: cytokine release
T28 peptide: VVVGAVGGGK

[34] = molecular target: T29, KRAS G12V 7-16, P3M peptide on HLA-A*11:01 (human); test: cytokine release
T29 peptide: VVMGAVGVGK

[35] = molecular target: T30, KRAS G12V 7-16, P3C peptide on HLA-A*11:01 (human); test: cytokine release
T30 peptide: VVCGAVGVGK

[36] = molecular target: T31, KRAS G12V 7-16, P9S peptide on HLA-A*11:01 (human); test: cytokine release
T31 peptide: VVVGAVGVSK

[37] = molecular target: T32, KRAS G12V 7-16, P9Q peptide on HLA-A*11:01 (human); test: cytokine release
T32 peptide: VVVGAVGVQK

[38] = molecular target: T33, KRAS G12V 7-16, P8L peptide on HLA-A*11:01 (human); test: cytokine release
T33 peptide: VVVGAVGLGK

B1: KVA11-N04 (TCR, V domains shown)
Valpha: GESVGLHLPTLGVQEGDNSIINCAYSNSASDYFIWYKQESGKGPQFIIDIRSNMDKRQGQRVTVLLNKTVKHLSLQIAATQPGDSAVYFCAENSDGTSYGKLTFGQGTILTVHP
Vbeta: EAGVAQSPRYKIIEKRQSVAFWCNPISGHATLYWYQQILGQGPKLLIQFQNNGVVDDSQLPKDRFSAERLKGVDSTLKIQPAKLEDSAVYLCASSLVGSPDYEQYFGPGTRLTVT
0.973 nM: EC50 of peptide [15] | EC50 of killing of peptide-loaded T2KO-A1101 cells (luciferase, E:T 9:1, 20 hours) [18]
22 nM: EC50 of peptide [16] | EC50 of IFN-γ secretion with peptide-loaded T2KO-A1101 cells (ELISA, E:T 1:1, 20 hours) [18]
recognises: binding result [1] | binding result [2] | binding result [3] | binding result [4] | binding result [5] | binding result [6] | binding result [7] | binding result [8] | binding result [9] | binding result [10] | binding result [11] | binding result [12] | binding result [13] | binding result [14]
28.9 nM: EC50 of peptide [17] | EC50 of NFAT-GFP reporter activation, TCR in Jurkat-NFAT cells with peptide-loaded T2 cells [18]

B2: KDA11-N01 (TCR, V domains shown)
Valpha: QKEVEQNSGPLSVPEGAIASLNCTYSDRGSQSFFWYRQYSGKSPELIMSIYSNGDKEDGRFTAQLNKASQYVSLLIRDSQPSDSATYLCAVNLGAAGNKLTFGGGTRVLVKP
Vbeta: B1 Vbeta with L96F, V97S, G98D, P100Y, D101N, Y102S, E103P, Q104L, Y105H, P108N
76.5 nM: EC50 of peptide [20] | EC50 of NFAT-GFP reporter activation, TCR in Jurkat-NFAT cells with peptide-loaded T2 cells [21]
49.6 nM: EC50 of peptide [19] | EC50 of IFN-γ secretion with peptide-loaded T2KO-A1101 cells (ELISA, E:T 1:1, 20 hours) [21]

B3: KVA11-N02 (TCR, V domains shown)
Valpha: AQSVAQPEDQVNVAEGNPLTVKCTYSVSGNPYLFWYVQYPNRGLQFLLKYITGDNLVKGSYGFEAEFNKSQTSFHLKKPSALVSDSALYFCAVRDIEGAGNNRKLIWGLGTSLAVNP
Vbeta: DAGVIQSPRHEVTEMGQEVTLRCKPISGHNSLFWYRQTMMRGLELLIYFNNNVPIDDSGMPEDRFSAKMPNASFSTLKIQPSEPRDSAVYFCASSEGFYTEAFFGQGTRLTVV
recognises: binding result [22] | binding result [23] | binding result [24] | binding result [25] | binding result [26] | binding result [27] | binding result [2] | binding result [28] | binding result [3] | binding result [4] | binding result [5] | binding result [29] | binding result [7] | binding result [8] | binding result [10] | binding result [30] | binding result [31] | binding result [32] | binding result [33] | binding result [34] | binding result [35] | binding result [36] | binding result [37] | binding result [14] | binding result [38]
